Experimental data as given in article PMC2757915, “The Elongator Complex Interacts with PCNA and Modulates Transcriptional Silencing and Sensitivity to DNA Damage Agents” (PLoS Genetics, 2009).

Biological target: T1, Elongator complex purified from yeast cells using Elp5-TAP (S. cerevisiae (endogenous in W303 yeast …, UniProt Q06706 1-1349; P42935 1-788; Q02908 1-557; Q02884 1-456; P38874 1-309; Q04868 …)
T1 construct: Elp1, S. cerevisiae; Elp2, S. cerevisiae; Elp3 (Kat9), S. cerevisiae; Elp4, S. cerevisiae; Elp5, S. cerevisiae; Elp6, S. cerevisiae; Six-subunit complex; also called Elp3 complex; Elp1-Elp6 complex; copies: + + + + +
Experiment: co-IP; in vitro: 2.5 µg recombinant PCNA incubated with different amounts of Elp3 complex (purified with Elp5-TAP) in TBS with 0.01% NP-40 at 4°C for 2 hrs; precipitated with polyclonal anti-PCNA antibodies and Protein G Sepharose; Western blot for PCNA and CBP; pre-bleed sera as negative control
Details: both partners purified

binding result: binds
B1: recombinant PCNA (natural protein, S. cerevisiae, UniProt P15873 1-258, looked up)
chain: MLEAKFEEASLFKRIIDGFKDCVQLVNFQCKEDGIIAQAVDDSRVLLVSLEIGVEAFQEYRCDHPVTLGMDLTSLSKILRCGNNTDTLTLIADNTPDSIILLFEDTKKDRIAEYSLKLMDIDADFLKIEELQYDSTLSLPSSEFSKIVRDLSQLSDSINIMITKETIKFVADGDIGSGSVIIKPFVDMEHPETSIKLEMDQPVDLTFGAKYLLDIIKGSSLSDRVGIRLSSEAPALFQFDLKSGFLQFFLAPKFNDEE
notes: PCNA, encoded by POL30, S. cerevisiae; expressed from a plasmid in E. coli; No tag is named; purified by conventional chromatography; source: E. coli BL21(DE3), purified (Q-Sepharose, hydroxyapatite, Superdex 200)
